Results as given in the DeepSol protein solubility set.

test: soluble on expression in E. coli; label from the status in PepcDB or PDB records

Sequence | soluble on expression in E. coli
MGSSHHHHHHSSGLVPRGSHMVTGKAFPYVVVTGIAMTTALATDAETTWKLLLDRQSGIRTLDDPFVEEFDLPVRIGGHLLEEFDHQLTRIELRRMGYLQRMSTVLSRRLWENAGSPEVDTNRLMVSIGTGLGSAEELVFSYDDMRARGMKAVSPLTVQKYMPNGAAAAVGLERHAKAGVMTPVSACASGAEAIARAWQQIVLGEADAAICGGVETRIEAVPIAGFAQMRIVMSTNNDDPAGACRPFDRDRDGFVFGEGGALLLIETEEHAKARGANILARIMGASITSDGFHMVAPDPNGERAGHAITRAIQLAGLAPGDIDHVNAHATGTQVGDLAEGRAINNALGGNRPAVYAPKSALGHSVGAVGAVESILTVLALRDQVIPPTLNLVNLDPEIDLDVVAGEPRPGNYRYAINNSFGFGGHNVAIAFGRY | soluble
MGSSHHHHHHSSGRENLYFQGHMCILMATRAHPDYELILISNRDEFLARKTHATCWHNNDFILSPYDLAKTSAEKQIFGTWSGINKEGKLATILNLKLDNEQNNTKSRSRGLLPFIFLSIHKADFEDWDNYKKFEGHYDGLKSTGDFNFFYGDVIKKQYKVIDSLGRTFDVLSSTCRKDLDSYMVVSNGKFYDSSSIPGQAWEKVKVARDSLENLVLENIESDEEKIISSCFQLASKSSLPSTISNPDVLQMVDPNVTMNTIYVPPLRRPPRDDLGASIPDGDYYGTRSQIVLLVSKDSTRVTFIERVLYSSDEDVRKYSVTSPKEEKRFKFKL | soluble
MGSSHHHHHHSSGRENLYFQGHMSHRDTLFSAPIARLGDWTFDERVAEVFPDMIQRSVPGYSNIISMIGMLAERFVQPGTQVYDLGCSLGAATLSVRRNIHHDNCKIIAIDNSPAMIERCRRHIDAYKAPTPVDVIEGDIRDIAIENASMVVLNFTLQFLEPSERQALLDKIYQGLNPGGALVLSEKFSFEDAKVGELLFNMHHDFKRANGYSELEISQKRSMLENVMLTDSVETHKARLHNAGFEHSELWFQCFNFGSLVALKAEDAA | soluble
MGSTGETQITPTHISDEEANLFAMQLASASVLPMILKSALELDLLEIIAKAGPGAQISPIEIASQLPTTNPDAPVMLDRMLRLLACYIILTCSVRTQQDGKVQRLYGLATVAKYLVKNEDGVSISALNLMNQDKVLMESWYHLKDAVLDGGIPFNKAYGMTAFEYHGTDPRFNKVFNKGMSDHSTITMKKILETYTGFEGLKSLVDVGGGTGAVINTIVSKYPTIKGINFDLPHVIEDAPSYPGVEHVGGDMFVSIPKADAVFMKWICHDWSDEHCLKFLKNCYEALPDNGKVIVAECILPVAPDSSLATKGVVHIDVIMLAHNPGGKERTQKEFEDLAKGAGFQGFKVHCNAFNTYIMEFLKKV | soluble
MGSTSSLYAAIDLGSNSFHMLVVREVAGSIQTLTRIKRKVRLAAGLNSENDLSNEAMERGWQCLRLFAERLQDIPPSQIRVVATATLRLAVNAGDFIAKAQEILGCPVQVISGEEEARLIYQGVAHTTGGADQRLVVDIGGASTELVTGTGAQTTSLFSLSMGCVTWLERYFADRNLGQENFDAAEKAAREVLRPVADELRYHGWKVCVGASGTVQALQEIMMAQGMDERITLEKLQQLKQRAIHCGRLEELEIDGLTLERALVFPSGLAILIAIFTELNIQCMTLAGGALREGLVYGMLHLAVEQDIRSRTLRNIQRRFMIDIDQAQRVAKVAANFFDQVENEWHLEAISRDLLISACQLHEIGLSVDFKQAPQHAAYLVRNLDLPGFTPAQKKLLATLLLNQTNPVDLSSLHQQNAVPPRVAEQLCRLLRLAIIFASRRRDDLVPEMTLQANHELLTLTLPQGWLTQHPLGKEIIAQENQWQSYVHWPLEVH | not soluble
MGTAAERWERAQMFFDAKDYAVAARILDGLVDEVPEQTGPRLLLARSYYHSAQLGRAEAELRILVERDPVEHYARLMLGRTLQRQGRDDEADSQLRIASALAGLEHHHHHH | not soluble
MGTKQYKDGTYYAEADDFDESGWKDTVTIEVKNGKIVSVDWNAINKDGGDDKDTLSRNGGYKMVEYGGAQAEWHEQAEKVEAYLVEKQDPTDIKYKDNDGHTDAISGATIKVKKFFDLAQKALKDAEKLEHHHHHH | soluble
MGTMRIAFQGTAGAYSEEALLKVFPEAKPVGFPTFHQVFEAVEAGEAELGVVPVENTTAGSINQTYDLLLESDLHVVGEIVHRVEHCLLAPKGTTLKDLHAVKSHPQALAQCDGFLARMRLTPIPVFDTAGAAKELAEHPEPGLAAIASRRAAELYGLEVLAENIEDYPHNYTRFFVIGHKEPPRGQGPYKTSIVFAVRHRPGGLLEALSVFAEAGVNLTKLESRPRRDKPFSYLFYLDLEGHLEDPGPAQALLRLLRRVAFLKVLGSYPAHANGGVSAP | soluble
MGTPKPRILPWLVSQLDLGQLEGVAWVNKSRTRFRIPWKHGLRQDAQQEDFGIFQAWAEATGAYVPGRDKPDLPTWKRNFRSALNRKEGLRLAEDRSKDPHDPHKIYEFVNSGVGDFSQPDTS | soluble
MGTQQKDVTIKSDAPDTLLLEKHADYIASYGSKKDDYEYCMSEYLRMSGVYWGLTVMDLMGQLHRMNKEEILVFIKSCQHECGGVSASIGHDPHLLYTLSAVQILTLYDSIHVINVDKVVAYVQSLQKEDGSFAGDIWGEIDTRFSFCAVATLALLGKLDAINVEKAIEFVLSCMNFDGGFGCRPGSESHAGQIYCCTGFLAITSQLHQVNSDLLGWWLCERQLPSGGLNGRPEKLPDVCYSWWVLASLKIIGRLHWIDREKLRSFILACQDEETGGFADRPGDMVDPFHTLFGIAGLSLLGEEQIKPVSPVFCMPEEVLQRVNVQPELVS | soluble
MGVLPKINIVARQFRKCSMAATSTSTSSSDNSVASTAFVQEHVRQMQNDIMVQLIPQDESGAVENLADLNVTSNLGRMTHYYFQQGGKMLRPTVSLLMGNACNSAANRSISEEYLAMLSTERSGIAAHLSVCQNQYKIGMIAEMIHTASLVHDDVIDEANTRRGSASVNAVWGNKMSVLVGDFILARATQILCSIGKPNIISVMASIIEDLVLGEFMQMSTTPTDATPVDRMKAYIEKTHRKTASLFASSCRSAAILADGSDLKLHEIAFEYGRNLGIAFQLADDLLDFIATADEMGKPVAADLKLGLATAPVLYACEQYPELNTMLLRKFKHDGDAEKAREIVVNSDGMDKTRRLIDSYSQKAVEMASSLPNRNESTEHLIKLAMSQSDRKF | not soluble
MGVRLAVRCFVVDGVLIDTGAKSMENEFTSFFQQQDIDQVVITHFHEDHTGCAAFLQRSMGLPIYMNEPMIEYCRQKADYPLYRKIFWGKRDPFAAKPIGATFSSRNATWDVIPTPGHAIDHVVFLNRETGQLFSGDLYCQEKTKVILREEDIPTIIASLQHVLTYDFGDVFCAHAGYLPLEHHHHHH | not soluble
MGYIVDISKWNGNINWDVAAPQLDFVIARVQDGSNYIDPLYKSYVQAMKTRNIPFGNYAFCRFISIADAKKEAQDFWNRGDKSATVWVADVEVKTMDDMIAGTQAFIDELRRLGAKKVGLYVGHHMYGPFGMANVKSDFVWIPRYGGNKPAYPCDIWQYTETGNVPGIGKCDLNQLIGNKPLSWFTESVPKQENIQAQVSKQNIIQSGAFSPYETPDVMGALTSLKMTATFILQSDGLTYFVTEPTSDTQLNALKSWLDRKGWWYEVK | not soluble
MHAPLVSKDLDYISTANHDQPPRHLGSRFSAEGEFLPEPGNTVVCHLVEGSQTESAIVSTRQRFLDMPEASQLAFTPVSSLHMTVFQGVIESRRALPYWPQTLPLDTPIDAVTDYYRDRLSTFPTLPAFNMRVTGLRPVGMVMKGATAEDDSIVALWRDTFADFFGYRHPDHDTYEFHITLSYIVSWFEPECLPRWQAMLDEELEKLRVAAPVIQMRPPAFCEFKDMNHFKELVVFDKR | soluble
MHAVKPFPLCNLPLISLREVIDYLPTFDIFVLLHTSQKTKKLISSNIRDFVARQEHYKKQDISVRVVAERSYMEVIAISPKIRSTRFKRNDINQALEAAKYLVDHFKCDTDSVWLRITHRKEDETRQIITSVKEINLNITNLQFRHERISSDLFNWLLENCVQDVHIWVLEPQSITVSNWNVFEKVRKYNFQGINFSSHQANMLLKSLKSNNNFVQFRANDIENSLDLSVVFEDTGATAKMDTYRSVVFRPGLTVLKEYKPSKSRFVTENNNGGEMSICITEHAFSFQSN | not soluble
MHEITLCQRALELIEQQAAKHGAKRVTGVWLKIGAFSCVETSSLAFCFDLVCRGSVAEGCKLHLEEQEAECWCETCQQYVTLLTQRVRRCPQCHGDMLQIVADDGLQIRRIEIDQE | soluble
